Molecular target: the molecule itself
Experiment: native gel or EMSA; 4-16% Bis-Tris native gel, Coomassie; 8.125 uM RRM alone or with NTD(1-77) at 0.5:1, 1:1 and 2:1 (NTD:RRM); incubated 10 min at 25 C in 300 mM NaCl, 40 mM HEPES pH 6.5, 4 mM DTT; full shift only at 2:1; also repeated with added RNA

B1: TDP-43(102-260), tandem RNA recognition motifs RRM1 and RRM2 of TAR DNA-binding Protein 43 kilodaltons (domain or fragment, human)
chain: KTSDLIVLGLPWKTTEQDLKEYFSTFGEVLMVQVKKDLKTGHSKGFGFVRFTEYETQVKVMSQRHMIDGRWCDCKLPNSKQSQDEPLRSRKVFVGRCTEDMTEDELREFFSQYGDVMDVFIPKPFRAFAFVTFADDQIAQSLCGEDLIIKGISVHISNA
notes: 15N-labelled (M9 medium with 15NH4Cl) in the CPMG NMR; also called RRMs; RRM12; source: E. coli BL21(DE3), purified (His-Trap, Superdex size exclusion)
  stoichiometry N: 2
